Source: patent US11890352B2, “Plectin-targeted liposomes/PARP inhibitor in the treatment of cancer” (University of Virginia Patent Foundation, priority 2018, dated 2024)
Where no end group is shown, it is not given here. Side-chain parts run from the residue outwards. The star is where a group is joined. DSPE = CCCCCCCCCCCCCCCCCC(=O)OC[C@H](COP(=O)(O)OCCN*)OC(=O)CCCCCCCCCCCCCCCCC; FAM = 5(6)-carboxyfluorescein

What was measured:
pancreatic cancer = conditions: clinical study; cited from earlier work
[1] = unlabeled liposomes; cited from earlier work
[2] = cited from earlier work
[3] = molecular target: T1, cell surface plectin on ovarian cancer cells (SKOV3, OVCAR8) (human, UniProt Q15149 1-4684); test: cell binding assay on FT132 cells (healthy fallopian tube cells), DiR fluorescence at 780 nm, 1 h at 37 C
T1 construct: whole, on cells; Endogenous plectin mislocalized to the cell surface; also called Plectin-1
Protocol: (§1) FT 132, SKOV3 and OVCAR8 cells were plated in triplicate in a 96 well black plate at a concentration of 5000 cells per well. After 48 h, liposomes at concentrations ranging from […] were incubated with the three cell lines after washing the wells with PBS buffer for 1 h at 37° C. The cells were later washed with PBS and liposomal DiR intensity was measured using a fluorescent plate reader (FLUOstar omega, BMG Labtech Inc. Cary, NC). PTP liposomal binding to the three cell lines was compared with liposomes containing no peptide (background binding) and with NCP (non-specific binding). Background binding by the no peptide liposomes was subtracted from both the non-specific (NCP) and PTP liposomes. To obtain specific binding of PTP liposomes, we subtracted non-specific (NCP) binding from the total binding by the PTP liposomes.
(§2) Figure 2B: Figure 3A: FIGS. 3A-C. PTP liposomes bind to SKOV3 and OVCAR8 cells. Cell binding assay (ELISA) was carried out to assess PTP liposome association to cell surface plectin on SKOV3 and OVCAR8 cells. Liposomes (No Pep, NCP and PTP) at varying concentrations were incubated with FT132, SKOV3 and OVCAR8 cells for 1 h at 37° C. […] NCP binding was subtracted from PTP liposomes to determine specific binding of PTP liposomes to A) FT132, B) SKOV3 and C) OVCAR8 cells for 1 h at 37° C. followed by quantification of DiR using fluorescent plate reader.

[4] = molecular target: T2, recombinant his-tagged C-terminus fragment of plectin (4379-4684 aa) (human, UniProt Q15149 4379-4684); test: BLI (ForteBio Octet), his-tagged plectin C-terminus fragment loaded on anti-His sensors, liposomes in solution
T2 construct: range 4379-4684; also called his-tagged plectin fragment; c-terminus fragment of plectin (4379-4384 aa); not shown: his tag
T2 sequence (looked up): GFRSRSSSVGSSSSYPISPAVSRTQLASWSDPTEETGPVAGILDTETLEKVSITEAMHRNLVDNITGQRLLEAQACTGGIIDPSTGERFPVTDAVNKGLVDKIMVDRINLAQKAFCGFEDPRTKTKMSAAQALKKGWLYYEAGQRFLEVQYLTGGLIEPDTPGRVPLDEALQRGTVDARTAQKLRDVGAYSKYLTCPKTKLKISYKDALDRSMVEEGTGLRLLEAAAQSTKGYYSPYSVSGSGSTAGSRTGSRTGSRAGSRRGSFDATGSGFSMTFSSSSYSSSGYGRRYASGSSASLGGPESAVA
Protocol: Biolayer Interferometry (BLI) to Study PTP-Liposomes Binding to C-Terminus Fragment of Plectin Biolayer interferometry (BLI) was performed using ForteBio octect Red 96 system (ForteBio, Menlo Park, CA), we used recombinant C-terminus fragment of plectin (4379-4684 aa). All BLI assays were performed in black 96 well plates (Nunc F96 Micro Well plates, Thermo Fisher, Waltham, MA). The total working volume for samples or buffer was 0.2 mL per well and the rpm setting for each equilibration and loading steps was set at 1000 rpm. The association and dissociation step with C-terminus fragment of plectin and peptide-liposomes was carried out at 600 rpm. Prior to each assay, anti-his biosensor tips were pre-wetted in 0.2 mL PBS for at least 10 min followed by equilibrium with PBS for 100 seconds. Anti-his biosensors were then non-covalently loaded with his-tagged C-terminus fragment ([…]) (100 sec). Subsequently, association with No peptide, NCP (Negative Control Peptide) and PTP liposomes (40 mM) (300 sec) was be carried out. Finally, the dissociation was monitored in PBS for 600 sec.
Figure 2A: FIGS. 2A-B described plectin-targeted peptide (PTP) liposomes binding to Plectin. A) PTP peptide was conjugated to DSPE-PEG-MALEIMIDE via the thiol present on the C-terminus of the peptide. […]

[5] = molecular target: T1, cell surface plectin on ovarian cancer …; test: cell binding assay on OVCAR8 cells; DiR fluorescence; NCP and no-peptide liposome binding subtracted; OVCAR8 cells
Protocol: as §1, §2

[6] = molecular target: T1, cell surface plectin on ovarian cancer …; test: cell binding assay on SKOV3 cells; DiR fluorescence; NCP and no-peptide liposome binding subtracted; SKOV3 cells
Protocol: as §1, §2

[7] = molecular target: T1, cell surface plectin on ovarian cancer …; test: cell binding assay on FT132 cells (healthy fallopian tube cells), DiR fluorescence at 780 nm, 1 h at 37 C; fit of the SPECIFIC curve; no unit beside the number, concentration axis in nM
Protocol: as §1, §2

T1 sequence (Q15149 whole entry): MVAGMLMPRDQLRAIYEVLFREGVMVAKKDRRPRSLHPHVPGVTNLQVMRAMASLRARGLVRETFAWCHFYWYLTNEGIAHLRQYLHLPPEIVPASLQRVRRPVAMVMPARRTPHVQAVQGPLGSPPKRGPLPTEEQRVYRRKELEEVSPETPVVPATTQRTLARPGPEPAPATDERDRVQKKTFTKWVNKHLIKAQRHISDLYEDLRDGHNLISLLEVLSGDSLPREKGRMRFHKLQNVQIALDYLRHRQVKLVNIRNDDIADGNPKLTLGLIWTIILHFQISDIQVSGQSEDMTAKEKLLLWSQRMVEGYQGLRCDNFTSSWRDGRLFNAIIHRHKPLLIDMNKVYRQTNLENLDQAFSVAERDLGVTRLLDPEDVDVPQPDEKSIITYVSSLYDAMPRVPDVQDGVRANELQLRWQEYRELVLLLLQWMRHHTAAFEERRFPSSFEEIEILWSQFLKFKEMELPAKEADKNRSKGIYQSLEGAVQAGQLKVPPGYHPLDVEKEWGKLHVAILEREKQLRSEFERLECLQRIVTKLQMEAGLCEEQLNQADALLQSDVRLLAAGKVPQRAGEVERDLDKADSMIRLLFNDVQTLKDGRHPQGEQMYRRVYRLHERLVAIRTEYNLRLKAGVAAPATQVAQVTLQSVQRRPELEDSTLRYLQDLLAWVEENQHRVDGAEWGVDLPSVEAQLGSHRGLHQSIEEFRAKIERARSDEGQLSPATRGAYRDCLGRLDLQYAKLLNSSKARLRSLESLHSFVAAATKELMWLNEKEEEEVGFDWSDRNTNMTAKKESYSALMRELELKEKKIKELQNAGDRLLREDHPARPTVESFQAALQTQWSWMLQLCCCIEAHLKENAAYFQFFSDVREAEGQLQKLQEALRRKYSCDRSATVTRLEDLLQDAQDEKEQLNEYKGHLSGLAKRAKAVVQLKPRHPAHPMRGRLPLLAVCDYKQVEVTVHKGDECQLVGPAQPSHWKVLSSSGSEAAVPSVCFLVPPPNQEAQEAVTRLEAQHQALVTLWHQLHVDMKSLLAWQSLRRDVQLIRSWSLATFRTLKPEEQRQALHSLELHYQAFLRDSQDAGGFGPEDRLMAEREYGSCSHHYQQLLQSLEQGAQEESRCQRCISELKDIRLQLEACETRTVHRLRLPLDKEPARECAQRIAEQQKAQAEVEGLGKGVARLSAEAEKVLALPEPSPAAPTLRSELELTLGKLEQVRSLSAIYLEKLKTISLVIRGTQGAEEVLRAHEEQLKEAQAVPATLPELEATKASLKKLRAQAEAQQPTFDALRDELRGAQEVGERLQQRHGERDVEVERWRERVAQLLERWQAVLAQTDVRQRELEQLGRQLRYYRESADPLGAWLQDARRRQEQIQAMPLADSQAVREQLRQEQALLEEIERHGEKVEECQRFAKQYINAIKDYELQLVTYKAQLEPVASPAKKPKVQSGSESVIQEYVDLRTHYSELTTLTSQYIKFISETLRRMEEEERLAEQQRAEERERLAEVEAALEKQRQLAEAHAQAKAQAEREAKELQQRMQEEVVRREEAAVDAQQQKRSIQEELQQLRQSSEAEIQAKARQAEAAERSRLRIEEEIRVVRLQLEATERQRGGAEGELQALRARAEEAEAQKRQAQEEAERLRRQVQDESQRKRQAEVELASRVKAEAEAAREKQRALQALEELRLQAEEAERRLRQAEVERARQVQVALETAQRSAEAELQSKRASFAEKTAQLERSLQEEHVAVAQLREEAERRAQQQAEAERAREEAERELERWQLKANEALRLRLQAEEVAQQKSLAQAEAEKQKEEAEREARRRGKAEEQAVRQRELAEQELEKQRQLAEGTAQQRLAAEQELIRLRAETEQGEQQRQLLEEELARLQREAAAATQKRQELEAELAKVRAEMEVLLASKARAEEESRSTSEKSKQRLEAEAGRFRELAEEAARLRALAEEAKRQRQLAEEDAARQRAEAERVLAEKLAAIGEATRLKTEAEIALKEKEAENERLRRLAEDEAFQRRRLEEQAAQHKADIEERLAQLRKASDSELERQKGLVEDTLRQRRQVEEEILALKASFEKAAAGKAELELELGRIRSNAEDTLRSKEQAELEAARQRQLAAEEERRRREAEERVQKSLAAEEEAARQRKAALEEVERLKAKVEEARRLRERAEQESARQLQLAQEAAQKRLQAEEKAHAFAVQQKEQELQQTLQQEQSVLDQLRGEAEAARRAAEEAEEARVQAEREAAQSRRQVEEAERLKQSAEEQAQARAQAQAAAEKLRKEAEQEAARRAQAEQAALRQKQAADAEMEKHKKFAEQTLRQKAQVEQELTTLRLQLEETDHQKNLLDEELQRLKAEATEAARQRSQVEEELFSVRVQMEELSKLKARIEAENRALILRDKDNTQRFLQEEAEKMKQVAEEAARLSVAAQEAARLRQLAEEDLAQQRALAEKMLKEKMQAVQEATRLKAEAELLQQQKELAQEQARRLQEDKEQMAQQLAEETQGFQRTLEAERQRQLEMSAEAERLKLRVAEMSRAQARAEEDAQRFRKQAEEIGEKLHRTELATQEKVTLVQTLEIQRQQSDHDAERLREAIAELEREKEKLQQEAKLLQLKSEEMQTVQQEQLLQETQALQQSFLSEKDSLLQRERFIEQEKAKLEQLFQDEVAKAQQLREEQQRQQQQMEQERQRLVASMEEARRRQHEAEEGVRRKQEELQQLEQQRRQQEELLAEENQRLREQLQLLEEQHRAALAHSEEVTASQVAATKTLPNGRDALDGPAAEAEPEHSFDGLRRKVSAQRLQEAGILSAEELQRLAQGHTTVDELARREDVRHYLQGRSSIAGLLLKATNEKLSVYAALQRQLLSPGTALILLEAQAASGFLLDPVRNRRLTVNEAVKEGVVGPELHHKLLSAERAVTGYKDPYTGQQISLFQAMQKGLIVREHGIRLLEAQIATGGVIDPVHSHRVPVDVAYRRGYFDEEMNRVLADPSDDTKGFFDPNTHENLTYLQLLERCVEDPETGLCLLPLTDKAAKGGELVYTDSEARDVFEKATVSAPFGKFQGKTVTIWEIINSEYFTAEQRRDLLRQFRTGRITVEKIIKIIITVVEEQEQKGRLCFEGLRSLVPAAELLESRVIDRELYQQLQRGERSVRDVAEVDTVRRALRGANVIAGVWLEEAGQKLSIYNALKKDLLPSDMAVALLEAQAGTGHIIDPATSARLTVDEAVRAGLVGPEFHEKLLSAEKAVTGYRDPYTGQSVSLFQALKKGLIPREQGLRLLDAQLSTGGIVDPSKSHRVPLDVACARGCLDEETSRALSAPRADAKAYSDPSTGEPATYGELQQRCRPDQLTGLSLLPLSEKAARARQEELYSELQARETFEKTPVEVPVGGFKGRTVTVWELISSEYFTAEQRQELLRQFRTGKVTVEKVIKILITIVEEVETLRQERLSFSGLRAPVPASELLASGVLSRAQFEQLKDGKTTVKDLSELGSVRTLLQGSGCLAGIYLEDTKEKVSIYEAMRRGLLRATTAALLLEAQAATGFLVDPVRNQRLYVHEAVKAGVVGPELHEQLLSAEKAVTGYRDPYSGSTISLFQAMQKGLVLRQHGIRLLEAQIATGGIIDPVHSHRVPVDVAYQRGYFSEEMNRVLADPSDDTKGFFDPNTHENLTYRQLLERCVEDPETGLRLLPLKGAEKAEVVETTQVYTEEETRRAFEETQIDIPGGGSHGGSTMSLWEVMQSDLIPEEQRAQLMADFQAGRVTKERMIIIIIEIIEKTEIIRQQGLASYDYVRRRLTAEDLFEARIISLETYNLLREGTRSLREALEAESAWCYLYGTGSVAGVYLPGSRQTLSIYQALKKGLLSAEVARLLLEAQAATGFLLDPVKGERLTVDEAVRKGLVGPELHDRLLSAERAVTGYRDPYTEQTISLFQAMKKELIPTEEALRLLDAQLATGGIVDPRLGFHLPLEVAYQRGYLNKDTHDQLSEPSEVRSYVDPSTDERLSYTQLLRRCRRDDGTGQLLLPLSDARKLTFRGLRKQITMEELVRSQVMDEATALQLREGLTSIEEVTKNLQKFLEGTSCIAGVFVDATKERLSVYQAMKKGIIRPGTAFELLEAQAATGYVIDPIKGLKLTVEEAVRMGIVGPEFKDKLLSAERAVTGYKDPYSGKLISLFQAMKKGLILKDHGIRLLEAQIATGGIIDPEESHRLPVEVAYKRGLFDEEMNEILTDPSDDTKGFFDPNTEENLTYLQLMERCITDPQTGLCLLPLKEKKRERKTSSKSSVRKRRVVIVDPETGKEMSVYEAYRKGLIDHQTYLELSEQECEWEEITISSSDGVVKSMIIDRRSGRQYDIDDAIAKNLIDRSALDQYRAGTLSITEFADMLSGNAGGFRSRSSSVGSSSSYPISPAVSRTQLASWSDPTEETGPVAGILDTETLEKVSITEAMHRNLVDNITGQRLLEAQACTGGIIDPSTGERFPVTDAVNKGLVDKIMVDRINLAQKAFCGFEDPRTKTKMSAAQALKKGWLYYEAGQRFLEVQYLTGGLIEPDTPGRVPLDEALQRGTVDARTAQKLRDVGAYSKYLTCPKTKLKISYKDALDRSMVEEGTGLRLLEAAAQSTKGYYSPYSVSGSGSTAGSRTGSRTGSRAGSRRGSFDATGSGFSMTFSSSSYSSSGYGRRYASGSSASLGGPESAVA

CNCc1ccc(-c2[nH]c3cc(F)cc4c3c2CCNC4=O)cc1 [Rucaparib]
patients showing benefit (pancreatic cancer): 36%

COc1cccc2c1C(=O)c1c(O)c3c(c(O)c1C2=O)C[C@@](O)(C(=O)CO)C[C@@H]3O[C@H]1C[C@H](N)[C@H](O)[C@H](C)O1 [doxorubicin]
drug loading previously reported [1]: 200 μg drug per mg of lipid

O=C(c1cc(Cc2n[nH]c(=O)c3ccccc23)ccc1F)N1CCN(C(=O)C2CC2)CC1 [Olaparib]
patients who developed myelodysplastic syndrome and acute myeloid leukemia [2]: About 2%
patients with adverse side effects (neutropenia, thrombocytopenia) ([2]; doses necessary to achieve PARP inhibition): About 10%

B1: NCP liposomes (Negative Control Peptide TALPRLNGGSK(FAM)C conjugated to DSPE-PEG3400-Maleimide and displayed on liposomes) (peptide)
peptide: TALPRLNGGSK(FAM)C([maleimide-PEG3400-DSPE])-NH2
modifications: also: displayed on liposomes
notes: Control peptide, tested only as a display on liposomes
binding result [3]: no binding (tested: 0.3 nM)
binding result [4]: no binding

B2: PTP liposomes (Plectin Targeting Peptide KTLLPTPGGSK(FAM)C conjugated to DSPE-PEG3400-Maleimide and displayed on DOPC/cholesterol/DSPE-PEG2000/DiR liposomes) (peptide)
peptide: KTLLPTPGGSK(FAM)C([maleimide-PEG3400-DSPE])-NH2
modifications: also: displayed on liposomes
notes: Tested only as a multivalent display on liposomes (about 110-120 nm), not as free peptide; also called Plectin Targeted Peptide; PTP-PEG3400-DSPE
Kd [5]: 0.11 nM
Kd [6]: 0.12 nM
Kd [7]: 0.06 nM
